Test [1] deals with AtCGE1 (Arabidopsis chloroplast GrpE homologue 1), mature region, 6xHis-tagged (Arabidopsis). Kind of test: cross-linking; 5 uM purified protein in common buffer [25 mM Hepes-KOH (pH 7.8), 5 mM MgCl2, 5 mM DTT] crosslinked with glutaraldehyde at 0.05, 0.1 and 0.2% for 10 min; 4-12% SDS-PAGE and CBR staining.
In test [2] the target is AtCGE2 (Arabidopsis chloroplast GrpE homologue 2), mature region, 6xHis-tagged (Arabidopsis). The description is as above.
Test [3] concerns the target AtCGE1 (Arabidopsis chloroplast GrpE homologue 1), mature region, 6xHis-tagged (Arabidopsis). Description: pull-down; AtCGE1-6xHis and tag-free AtCGE2 co-expressed in E. coli BL21(DE3); crude protein extract bound to Talon beads, stringent wash, elution; bands seen on PAGE.

Where “and” joins values, the source holds several entries; their conditions need not be identical. Equal entries are not always repeated.

A word on the stoichiometry N: it is the number of molecules, sites or subunits per partner or assembly.

Chain of AtCGE1 (Arabidopsis chloroplast GrpE homologue 1), mature region, 6xHis-tagged (Arabidopsis) (main, as listed by the source): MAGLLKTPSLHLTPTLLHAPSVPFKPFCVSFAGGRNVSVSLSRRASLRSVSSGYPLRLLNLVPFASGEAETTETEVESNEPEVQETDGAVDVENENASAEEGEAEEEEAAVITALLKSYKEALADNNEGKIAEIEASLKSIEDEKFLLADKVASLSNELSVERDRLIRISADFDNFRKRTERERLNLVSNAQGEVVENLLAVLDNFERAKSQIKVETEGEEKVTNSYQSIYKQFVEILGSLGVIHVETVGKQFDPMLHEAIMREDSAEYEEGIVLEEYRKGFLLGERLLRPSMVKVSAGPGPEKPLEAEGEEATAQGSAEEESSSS

On to “AtCGE1 (Arabidopsis chloroplast GrpE homologue 1), mature region, 6xHis-tagged (natural protein)”, for which, in test [1], the stoichiometry N was 2 and 4.

In the case of “AtCGE2 (Arabidopsis chloroplast GrpE homologue 2), mature region, 6xHis-tagged (natural protein)”, the stoichiometry N in test [2] was 2 and 4. “AtCGE2 (Arabidopsis chloroplast GrpE homologue 2), mature region, tag-free, co-expressed with AtCGE1-6xHis (natural protein)” displayed a stoichiometry N in test [3] of 1 molar ratio.
